B1: Flagellar biosynthesis protein FlhA (Salmonella typhimurium), P40729 (parent)
chain: MANLVAMLRLPSNLKSTQWQILAGPILILLILSMMVLPLPAFILDLLFTFNIALSIMVLLVAMFTQRTLDFAAFPTILLFTTLLRLALNVASTRIILMEGHTGAAAAGKVVEAFGHFLVGGNFAIGIVVFIILVIINFMVITKGAGRIAEVGARFVLDGMPGKQMAIDADLNAGLIGEDEAKKRRSEVTQEADFYGSMDGASKFVRGDAIAGILIMVINVVGGLLVGVLQHGMSIGSAAESYTLLTIGDGLVAQIPALVISTAAGVIVTRVSTDQDVGEQMVGQLFSNPRVMLLAAAVLGLLGMVPGMPNLVFLLFTAALLGLAWWLRGREEKAPEEPQPVKMPENNSVVEATWNDVQLEDSLGMEVGYRLIPMVDFQQDGELLGRIRSIRKKFAQDMGFLPPVVHIRDNMDLQPARYRILMKGVEIGSGDAYPGRWLAINPGTAAGTLPGEKTVDPAFGLDAIWIESALKEQAQIQGFTVVEASTVVATHLNHLIGQFSAELFGRQEAQQLLDRVSQEMPKLTEDLVPGVVTLTTLHKVLQNLLAEKVPIRDMRTILETLAEHAPLQSDPHELTAVVRVALGRAITQQWFPGNEEVQVIGLDTALERLLLQALQGGGGLEPGLADRLLAQTQEALSRQEMLGAPPVLLVNHALRPLLSRFLRRSLPQLVVLSNLELSDNRHIRMTATIGGK
B2: Flagellar biosynthesis protein FlhA (Salmonella typhimurium), P40729 (parent)
chain: B1 chain
partner: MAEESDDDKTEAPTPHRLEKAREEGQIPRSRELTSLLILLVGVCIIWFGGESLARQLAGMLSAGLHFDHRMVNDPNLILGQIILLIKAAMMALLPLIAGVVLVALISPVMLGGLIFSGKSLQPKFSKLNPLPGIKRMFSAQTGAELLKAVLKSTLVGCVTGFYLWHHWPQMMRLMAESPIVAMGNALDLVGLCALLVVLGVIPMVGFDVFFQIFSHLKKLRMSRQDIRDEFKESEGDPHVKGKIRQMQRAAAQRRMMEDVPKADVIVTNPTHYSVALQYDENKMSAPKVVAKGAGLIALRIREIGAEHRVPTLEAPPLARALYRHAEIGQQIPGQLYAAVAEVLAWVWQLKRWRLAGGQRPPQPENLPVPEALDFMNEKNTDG

Variants of: B1
Conditions: with flij_salty fliJ

**Q.** Which “effect of a mutation on the interaction” value does the source give for G368C here?
**A.** increasing interaction strength

Variants of: B2
Conditions: with flhb_salty flhB

**Q.** For G368C, which “effect of a mutation on the interaction” value is on record?
**A.** increasing interaction strength
